The target in experiment [1] is recombinant human CD3ε/δ heterodimer (human) (UniProt P07766). The experiment can be described thus: ELISA, coated CD3ε/δ. (In general: In an ELISA, binding on a coated surface is turned into a signal by an enzyme label.)
Experiment [2] addresses recombinant cynomolgus monkey CD3ε/δ heterodimer (cynomolgus monkey) (UniProt Q95LI5). Briefly: ELISA, coated CD3ε/δ.

Chain of recombinant human CD3ε/δ heterodimer (human) (P07766 23-126, stated change not applied, chain 1 of 2): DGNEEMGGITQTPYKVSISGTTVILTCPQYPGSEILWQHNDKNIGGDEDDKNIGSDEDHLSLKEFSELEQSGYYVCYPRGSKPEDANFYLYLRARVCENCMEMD
Chain of recombinant human CD3ε/δ heterodimer (human) (P04234 22-105, stated change not applied, chain 2 of 2, further chain): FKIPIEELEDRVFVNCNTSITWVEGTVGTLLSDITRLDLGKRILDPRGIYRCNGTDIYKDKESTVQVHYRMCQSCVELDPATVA
Chain of recombinant cynomolgus monkey CD3ε/δ heterodimer (cynomolgus monkey) (Q95LI5 22-117, stated change not applied, chain 1 of 2): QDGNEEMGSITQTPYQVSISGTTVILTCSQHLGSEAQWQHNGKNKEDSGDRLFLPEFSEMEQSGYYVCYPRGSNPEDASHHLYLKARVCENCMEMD
Chain of recombinant cynomolgus monkey CD3ε/δ heterodimer (cynomolgus monkey) (Q95LI8 22-105, stated change not applied, chain 2 of 2, further chain): as the sequence (P04234 22-105, stated change not applied, chain 2 of 2, further chain) above, with I5V, N15K, I20V, S32T, D33N, I34N, T64A, S74N, V83L counted along it

B1: C02 (antibody, human IgG1, lambda, L234A L235A, V domains shown)
VH: EVQLVESGGGLVQPGGSLKLSCAASGFTFNTYAMNWVRQASGKGLEWVGRIRSKYNNYATYYADSVKDRFTISRDDSQSTAYLQMNSLKTEDTAVYYCVRHGNFGNSYVSWFAYWGQGTLVTVSS
VL: QAVVTQEPSLTVSPGGTVTLTCRSSTGAVTTSNYANWFQQKPGQAPRTLIYGTNKRAPWTPARFSGSLLGDKAALTLSGAQPEDEAEYYCALWYSNLWVFGGGTKLTVLG
For B1, the Absorbance (450 nm) in experiment [1] was found to be 0.099; in experiment [2], 0.071.

B2: A05 (antibody, human IgG1, lambda, L234A L235A, V domains shown)
VH: EVQLVESGGGLVQPGGSLKLSCAASGFTFNTYAMNWVRQASGKGLEWVGRIRSKYNNYATYYADSVKDRFTISRDDSKNTAYLQMNSLKTEDTAVYYCVRHGNFGNSYVSWFAYWGQGTLVTVSS
VL: QAVVTQEPSLTVSPGGTVTLTCRSSTGAVTTSNYANWFQQKPGQAPRGLIYGTNKRAPWTPARFSGSLLGGKAALTLSGAQPEDEAEYYCALWYSNLWVFGGGTKLTVLG
As to B2, the Absorbance (450 nm) in experiment [1] was 0.167; in experiment [2], 0.141.

B3: C12 (antibody, human IgG1, lambda, L234A L235A, V domains shown)
VH: EVQLVESGGGLVQPGGSLKLSCAASGFTFNTYAMNWVRQASGKGLEWVGRIRSKYNNYATYYADSVKDRFTISRDDSQSTAYLQMNSLKTEDTAVYYCVRHGNFGNSYVSWFAYWGQGTLVTVSS
VL: QAVVTQEPSLTVSPGGTVTLTCRSSTGAVTTSNYANWVQQKPGQAPRTLIGGTNKRAPWTPARFSGSLLGDKAALTLSGAQPEDEAEYYCALWYSNLWVFGGGTKLTVLG
For the molecule B3, the results for the Absorbance (450 nm) in experiment [1] and in experiment [2] were 0.087 and 0.065, respectively.

B4: A04 (antibody, human IgG1, lambda, L234A L235A, V domains shown)
VH: EVQLVESGGGLVQPGGSLKLSCAASGFTFNTYAMNWVRQASGKGLEWVGRIRSKYNNYATYYADSVKDRFTISRDDSKNTAYLQMNSLKTEDTAVYYCVRHGNFGNSYVSWFAYWGQGTLVTVSS
VL: QAVVTQEPSLTVSPGGTVTLTCRSSTGAVTTSNYANWFQQKPGQAPRTLIGGTNKRAPWTPARFSGSLLGDKAALTLSGAQPEDEAEYYCALWYSNLWVFGGGTKLTVLG
B4: the Absorbance (450 nm) in experiment [1] is 0.098; in experiment [2], 0.065.

B5: C13 (antibody, human IgG1, lambda, L234A L235A, V domains shown)
VH: EVQLVESGGGLVQPGGSLKLSCAASGFTFNTYAMNWVRQASGKGLEWVGRIRSKYNNYATYYADSVKDRFTISRDDSQSTAYLQMNSLKTEDTAVYYCVRHGNFGNSYVSWFAYWGQGTLVTVSS
VL: QAVVTQEPSLTVSPGGTVTLTCRSSTGAVTTSNYANWVQQKPGQAPRGLIYGTNKRAPWTPARFSGSLLGGKAALTLSGAQPEDEAEYYCALWYSNLWVFGGGTKLTVLG
B5: the Absorbance (450 nm) in experiment [1] and in experiment [2] was 0.179 each time.

B6: C05 (antibody, human IgG1, lambda, L234A L235A, V domains shown)
VH: EVQLVESGGGLVQPGGSLKLSCAASGFTFNTYAMNWVRQASGKGLEWVGRIRSKYNNYATYYADSVKDRFTISRDDSQSTAYLQMNSLKTEDTAVYYCVRHGNFGNSYVSWFAYWGQGTLVTVSS
VL: QAVVTQEPSLTVSPGGTVTLTCRSSTGAVTTSNYANWFQQKPGQAPRGLIYGTNKRAPWTPARFSGSLLGGKAALTLSGAQPEDEAEYYCALWYSNLWVFGGGTKLTVLG
Consider B6, for which the figures for the Absorbance (450 nm) in experiment [1] and in experiment [2] were 0.107 and 0.128, respectively.

B7: C09 (antibody, human IgG1, lambda, L234A L235A, V domains shown)
VH: EVQLVESGGGLVQPGGSLKLSCAASGFTFNTYAMNWVRQASGKGLEWVGRIRSKYNNYATYYADSVKDRFTISRDDSQSTAYLQMNSLKTEDTAVYYCVRHGNFGNSYVSWFAYWGQGTLVTVSS
VL: QAVVTQEPSLTVSPGGTVTLTCRSSTGAVTTSNYANWVQQKPGQAPRTLIYGTNKRAPWTPARFSGSLLGGKAALTLSGAQPEDEAEYYCALWYSNLWVFGGGTKLTVLG
In the case of B7, the Absorbance (450 nm) in experiment [1] was determined as 0.109; in experiment [2], 0.075.

B8: C11 (antibody, human IgG1, lambda, L234A L235A, V domains shown)
VH: EVQLVESGGGLVQPGGSLKLSCAASGFTFNTYAMNWVRQASGKGLEWVGRIRSKYNNYATYYADSVKDRFTISRDDSQSTAYLQMNSLKTEDTAVYYCVRHGNFGNSYVSWFAYWGQGTLVTVSS
VL: QAVVTQEPSLTVSPGGTVTLTCRSSTGAVTTSNYANWVQQKPGQAPRTLIGGTNKRAPWTPARFSGSLLGGKAALTLSGAQPEDEAEYYCALWYSNLWVFGGGTKLTVLG
With B8, the Absorbance (450 nm) in experiment [1] came out at 0.288; in experiment [2] it was 0.261.

B9: C03 (antibody, human IgG1, lambda, L234A L235A, V domains shown)
VH: EVQLVESGGGLVQPGGSLKLSCAASGFTFNTYAMNWVRQASGKGLEWVGRIRSKYNNYATYYADSVKDRFTISRDDSQSTAYLQMNSLKTEDTAVYYCVRHGNFGNSYVSWFAYWGQGTLVTVSS
VL: QAVVTQEPSLTVSPGGTVTLTCRSSTGAVTTSNYANWFQQKPGQAPRTLIGGTNKRAPWTPARFSGSLLGGKAALTLSGAQPEDEAEYYCALWYSNLWVFGGGTKLTVLG
For B9, the Absorbance (450 nm) in experiment [1] is 0.14; in experiment [2] it was 0.089.

B10: C10 (antibody, human IgG1, lambda, L234A L235A, V domains shown)
VH: EVQLVESGGGLVQPGGSLKLSCAASGFTFNTYAMNWVRQASGKGLEWVGRIRSKYNNYATYYADSVKDRFTISRDDSQSTAYLQMNSLKTEDTAVYYCVRHGNFGNSYVSWFAYWGQGTLVTVSS
VL: QAVVTQEPSLTVSPGGTVTLTCRSSTGAVTTSNYANWVQQKPGQAPRTLIYGTNKRAPWTPARFSGSLLGDKAALTLSGAQPEDEAEYYCALWYSNLWVFGGGTKLTVLG
For B10, the results for the Absorbance (450 nm) in experiment [1] and in experiment [2] were 0.096 and 0.074, respectively.

B11: C14 (antibody, human IgG1, lambda, L234A L235A, V domains shown)
VH: EVQLVESGGGLVQPGGSLKLSCAASGFTFNTYAMNWVRQASGKGLEWVGRIRSKYNNYATYYADSVKDRFTISRDDSQSTAYLQMNSLKTEDTAVYYCVRHGNFGNSYVSWFAYWGQGTLVTVSS
VL: QAVVTQEPSLTVSPGGTVTLTCRSSTGAVTTSNYANWVQQKPGQAPRGLIYGTNKRAPWTPARFSGSLLGDKAALTLSGAQPEDEAEYYCALWYSNLWVFGGGTKLTVLG
Consider B11, for which the values for the Absorbance (450 nm) in experiment [1] and in experiment [2] were 0.107 and 0.095, respectively.

B12: C06 (antibody, human IgG1, lambda, L234A L235A, V domains shown)
VH: EVQLVESGGGLVQPGGSLKLSCAASGFTFNTYAMNWVRQASGKGLEWVGRIRSKYNNYATYYADSVKDRFTISRDDSQSTAYLQMNSLKTEDTAVYYCVRHGNFGNSYVSWFAYWGQGTLVTVSS
VL: QAVVTQEPSLTVSPGGTVTLTCRSSTGAVTTSNYANWFQQKPGQAPRGLIYGTNKRAPWTPARFSGSLLGDKAALTLSGAQPEDEAEYYCALWYSNLWVFGGGTKLTVLG
As to B12, the Absorbance (450 nm) in experiment [1] stood at 0.108; in experiment [2], 0.083.

B13: C04 (antibody, human IgG1, lambda, L234A L235A, V domains shown)
VH: EVQLVESGGGLVQPGGSLKLSCAASGFTFNTYAMNWVRQASGKGLEWVGRIRSKYNNYATYYADSVKDRFTISRDDSQSTAYLQMNSLKTEDTAVYYCVRHGNFGNSYVSWFAYWGQGTLVTVSS
VL: QAVVTQEPSLTVSPGGTVTLTCRSSTGAVTTSNYANWFQQKPGQAPRTLIGGTNKRAPWTPARFSGSLLGDKAALTLSGAQPEDEAEYYCALWYSNLWVFGGGTKLTVLG
Consider B13, for which the Absorbance (450 nm) in experiment [1] came out at 0.093; in experiment [2], 0.067.

Source of the values: patent US20200317779A1.
